Source: patent US9802997B2, “Peptides and combination of peptides for use in immunotherapy against various tumors” (immatics biotechnologies GmbH, priority 2015, dated 2017)

What follows are substances tested against HLA-A*02:01 (Homo sapiens, UniProt P04439, D140Y/D185E/D98H/E176V/E277Q/G131W/G231S/I119V/I121R/I166T/I218V/L300P/L318F/N151K/N90K/P208A/P217A/Q86G/Q94H/R138H/R169H/T345S) (assay: MHC binding assay (UV-ligand exchange, beta2m ELISA)). Settings: binding to HLA-A*02:01, β2m ELISA.
Description: Candidate peptides for T cell based therapies according to the present invention were further tested for their MHC binding capacity (affinity). The individual peptide-MHC complexes were produced by UV-ligand exchange, where a UV-sensitive peptide is cleaved upon UV-irradiation, and exchanged with the peptide of interest as analyzed. Only peptide candidates that can effectively bind and stabilize the peptide-receptive MHC molecules prevent dissociation of the MHC complexes. To determine the yield of the exchange reaction, an ELISA was performed based on the detection of the light chain (β2m) of stabilized MHC complexes. The assay was performed as generally described in Rodenko et al. (Rodenko et al., 2006).
96 well MAXISorp plates (NUNC) were coated over night with 2 ug/ml streptavidin in PBS at room temperature, washed 4× and blocked for 1 h at 37° C. in 2% BSA containing blocking buffer. Refolded HLA-A*02:01/MLA-001 monomers served as standards, covering the range of 15-500 ng/ml. Peptide-MHC monomers of the UV-exchange reaction were diluted 100 fold in blocking buffer. Samples were incubated for 1 h at 37° C., washed four times, incubated with 2 ug/ml HRP conjugated anti-β2m for 1 h at 37° C., washed again and detected with TMB solution that is stopped with […]. Absorption was measured at 450 nm. Candidate peptides that show a high exchange yield (preferably higher than 50%, most preferred higher than 75%) are generally preferred for a generation and production of antibodies or fragments thereof, and/or T cell receptors or fragments thereof, as they show sufficient avidity to the MHC molecules and prevent dissociation of the MHC complexes.

Peptide exchange (MHC class I binding score, peptide exchange yield) | Substance
+++ (≧50 = +++) | 98 (FVQEKIPEL; listed as Homo sapiens) [compound 98]
+++ (≧50 = +++) | 143 (MLWESIMRV; listed as Homo sapiens) [compound 143]
++ (≧20% = ++) | 72 (VLSTRVTNV; listed as Homo sapiens) [compound 72]
++ (≧20% = ++) | 235 (SLLNQPKAV; listed as Homo sapiens) [compound 235]
+++ (≧50 = +++) | 280 (HLWGHALFL; listed as Homo sapiens) [compound 280]
++ (≧20% = ++) | 74 (GLAFLPASV; listed as Homo sapiens) [compound 74]
+++ (≧50 = +++) | 7 (ALLQALMEL; listed as Homo sapiens) [compound 7]
++ (≧20% = ++) | 96 (ALDTTRHEL; listed as Homo sapiens) [compound 96]
++ (≧20% = ++) | 192 (TLLPSSGLVTL; listed as Homo sapiens) [compound 192]
+++ (≧50 = +++) | 60 (YLFSQGLQGL; listed as Homo sapiens) [compound 60]
+++ (≧50 = +++) | 130 (QLYGSAITL; listed as Homo sapiens) [compound 130]
++ (≧20% = ++) | 171 (LLLLDVPTA; listed as Homo sapiens) [compound 171]
+++ (≧50 = +++) | 286 (FLTEMVHFI; listed as Homo sapiens) [compound 286]
++ (≧20% = ++) | 215 (QIADIVTSV; listed as Homo sapiens) [compound 215]
+++ (≧50 = +++) | 144 (FLISQTPLL; listed as Homo sapiens) [compound 144]
+++ (≧50 = +++) | 248 (VLMQDSRLYL; listed as Homo sapiens) [compound 248]
++ (≧20% = ++) | 64 (SLYAGSNNQV; listed as Homo sapiens) [compound 64]
+++ (≧50 = +++) | 122 (SIIDTELKV; listed as Homo sapiens) [compound 122]
+++ (≧50 = +++) | 224 (LLFDWSGTGRADA; listed as Homo sapiens) [compound 224]
+++ (≧50 = +++) | 30 (IITEVITRL; listed as Homo sapiens) [compound 30]
++ (≧20% = ++) | 33 (TLDRNSLYV; listed as Homo sapiens) [compound 33]

Peptide exchange (MHC class I binding score, peptide exchange yield) | Substance
++++ (≧75% = ++++) | 161 (NLLDENVCL; listed as Homo sapiens) [compound 161]
+++ (≧50 = +++) | 168 (VIFEGEPMYL; listed as Homo sapiens) [compound 168]
++ (≧20% = ++) | 272 (FVMEGEPPKL; listed as Homo sapiens) [compound 272]
+++ (≧50 = +++) | 100 (ALQSFEFRV; listed as Homo sapiens) [compound 100]
++ (≧20% = ++) | 188 (VLGEEQEGV; listed as Homo sapiens) [compound 188]
+++ (≧50 = +++) | 274 (TLYNPERTITV; listed as Homo sapiens) [compound 274]
+++ (≧50 = +++) | 62 (SLVENIHVL; listed as Homo sapiens) [compound 62]
+++ (≧50 = +++) | 191 (AAIEIFEKV; listed as Homo sapiens) [compound 191]
+++ (≧50 = +++) | 169 (ALADLSVAV; listed as Homo sapiens) [compound 169]
+++ (≧50 = +++) | 80 (VLTGQVHEL; listed as Homo sapiens) [compound 80]
+ (≧10% = +) | 123 (QTAPEEAFIKL; listed as Homo sapiens) [compound 123]
+ (≧10% = +) | 259 (GPGIFPPPPPQP; listed as Homo sapiens) [compound 259]
+++ (≧50 = +++) | 270 (TLLTFFHEL; listed as Homo sapiens) [compound 270]
++ (≧20% = ++) | 114 (LLFPSDVQTL; listed as Homo sapiens) [compound 114]
++ (≧20% = ++) | 268 (SLDKDIVAL; listed as Homo sapiens) [compound 268]
+++ (≧50 = +++) | 160 (TLQEWLTEV; listed as Homo sapiens) [compound 160]
+++ (≧50 = +++) | 22 (LMYPYIYHV; listed as Homo sapiens) [compound 22]
+++ (≧50 = +++) | 204 (SEWGSPHAAVP; listed as Homo sapiens) [compound 204]
+++ (≧50 = +++) | 167 (LVVDEGSLVSV; listed as Homo sapiens) [compound 167]
++++ (≧75% = ++++) | 178 (SLVSWQLLL; listed as Homo sapiens) [compound 178]
+++ (≧50 = +++) | 68 (QLMNLIRSV; listed as Homo sapiens) [compound 68]

Peptide exchange (MHC class I binding score, peptide exchange yield) | Substance
+++ (≧50 = +++) | 166 (LLGDSSFFL; listed as Homo sapiens) [compound 166]
++ (≧20% = ++) | 105 (AMLASQTEA; listed as Homo sapiens) [compound 105]
+++ (≧50 = +++) | 226 (SLAGNLQEL; listed as Homo sapiens) [compound 226]
+++ (≧50 = +++) | 207 (KLFETVEEL; listed as Homo sapiens) [compound 207]
++ (≧20% = ++) | 115 (ILHGEVNKV; listed as Homo sapiens) [compound 115]
++ (≧20% = ++) | 258 (QLVQRVASV; listed as Homo sapiens) [compound 258]
++ (≧20% = ++) | 219 (GVVPTIQKV; listed as Homo sapiens) [compound 219]
++ (≧20% = ++) | 266 (FLLDKPQDL; listed as Homo sapiens) [compound 266]
+++ (≧50 = +++) | 44 (AVFNLVHVV; listed as Homo sapiens) [compound 44]
+++ (≧50 = +++) | 180 (RLYEEEIRI; listed as Homo sapiens) [compound 180]
++ (≧20% = ++) | 281 (LLLESDPKVYSL; listed as Homo sapiens) [compound 281]
++ (≧20% = ++) | 116 (ALLSSVAEA; listed as Homo sapiens) [compound 116]
++ (≧20% = ++) | 106 (VLLGSVVIFA; listed as Homo sapiens) [compound 106]
++ (≧20% = ++) | 154 (AIIKEIQTV; listed as Homo sapiens) [compound 154]
+++ (≧50 = +++) | 145 (ALEEKLENV; listed as Homo sapiens) [compound 145]
+++ (≧50 = +++) | 256 (FLNDIFERI; listed as Homo sapiens) [compound 256]
++ (≧20% = ++) | 141 (NIDINNNEL; listed as Homo sapiens) [compound 141]
+++ (≧50 = +++) | 271 (VLIEYNFSI; listed as Homo sapiens) [compound 271]
++ (≧20% = ++) | 221 (IMLNSVEEI; listed as Homo sapiens) [compound 221]
++ (≧20% = ++) | 117 (TLLEGISRA; listed as Homo sapiens) [compound 117]
